Source: patent publication US20250145690A1 (US Dept. of Health and Human Services, published 2025)

T1: HCoV-NL63 spike protein (Sino Biological 40604-V08B) (HCoV-NL63, UniProt Q6Q1S2 19-1296)
T1 sequence: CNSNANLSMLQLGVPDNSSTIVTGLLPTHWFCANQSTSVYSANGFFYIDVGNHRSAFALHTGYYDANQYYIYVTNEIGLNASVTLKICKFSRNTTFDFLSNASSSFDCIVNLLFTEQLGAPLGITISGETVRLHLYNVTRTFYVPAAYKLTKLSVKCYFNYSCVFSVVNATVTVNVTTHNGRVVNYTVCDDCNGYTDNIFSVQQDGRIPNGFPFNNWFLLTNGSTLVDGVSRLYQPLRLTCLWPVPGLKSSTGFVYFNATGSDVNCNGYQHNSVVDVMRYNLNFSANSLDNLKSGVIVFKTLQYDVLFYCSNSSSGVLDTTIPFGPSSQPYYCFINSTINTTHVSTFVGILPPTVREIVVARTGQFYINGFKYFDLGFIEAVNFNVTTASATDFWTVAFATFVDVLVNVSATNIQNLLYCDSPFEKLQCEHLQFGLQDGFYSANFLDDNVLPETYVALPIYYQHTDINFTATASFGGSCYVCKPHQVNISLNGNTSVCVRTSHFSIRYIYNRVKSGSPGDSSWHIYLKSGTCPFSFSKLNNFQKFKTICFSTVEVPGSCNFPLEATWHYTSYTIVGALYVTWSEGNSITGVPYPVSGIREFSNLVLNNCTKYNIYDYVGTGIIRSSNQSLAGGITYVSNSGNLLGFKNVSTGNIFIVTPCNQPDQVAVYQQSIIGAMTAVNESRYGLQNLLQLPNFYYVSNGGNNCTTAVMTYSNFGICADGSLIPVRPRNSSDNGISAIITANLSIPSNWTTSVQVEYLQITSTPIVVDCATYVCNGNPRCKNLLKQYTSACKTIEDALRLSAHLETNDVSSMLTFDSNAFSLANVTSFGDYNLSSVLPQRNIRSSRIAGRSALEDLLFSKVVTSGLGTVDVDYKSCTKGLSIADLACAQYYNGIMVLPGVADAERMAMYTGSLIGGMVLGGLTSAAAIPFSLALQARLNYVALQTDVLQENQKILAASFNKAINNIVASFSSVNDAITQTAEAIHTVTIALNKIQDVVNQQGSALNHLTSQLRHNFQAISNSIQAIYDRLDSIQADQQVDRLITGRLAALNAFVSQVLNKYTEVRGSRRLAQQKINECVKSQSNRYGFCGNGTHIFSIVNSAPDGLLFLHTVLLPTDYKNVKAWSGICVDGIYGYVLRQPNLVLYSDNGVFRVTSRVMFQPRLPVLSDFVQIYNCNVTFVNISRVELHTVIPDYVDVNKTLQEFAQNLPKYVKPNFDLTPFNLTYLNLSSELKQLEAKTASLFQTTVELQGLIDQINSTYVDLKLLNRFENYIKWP


Experiments:
Assay in all cases: bead flow cytometry, AUC minus CD4
[1] = target: SARS-CoV-2 spike receptor binding domain (RBD), recombinant (SARS-CoV-2, UniProt P0DTC2 319-541)
[2] = target: SARS-CoV-2 spike N-terminal domain (NTD), recombinant (SARS-CoV-2, UniProt P0DTC2 14-305)
[3] = target: T1, HCoV-NL63 spike protein (Sino …)

Binder | binding result [1] | binding result [2] | binding result [3]
COV44-25 (antibody, V domains shown) VH: QVQLVDSGGGAVQPGTSLRLSCAASGFTFNTYAFHWVRQAPGKGLEWVAVISDDGNNKYYADSVKGRFTISRDDSKNTLSLQMDSLRVEDAAVYFCARGSYNSNWSLGEYFDYWGQGSLVTVSS VL: DIVMTQSPDSLPVSLGERATINCKSSQSVLHSSNNKNYLAWYQQKPGQSPKLLISWASTRESGVPDRFSGSGSGTHFTLTISSLRAEDVAVYYCLQYFNNQYTFGQGTKLEIK | no binding (tested: 200 µg/mL) | no binding (tested: 200 µg/mL) | 
COV57-03 (antibody, V domains shown) VH: QVHLVESGGGVVQPGRSLRLSCAASGFTFSSFGMHWVRQAPGKGLEWVAVISDDGNNKFYADSVKGRFSISRDNSKNTLYLQMNSLRAEDTAVYYCVRAFRNSNWATGEYFDYWGQGTLVTVSS VL: not shown | no binding (tested: 200 µg/mL) | no binding (tested: 200 µg/mL) | 
COV57-04 (antibody, V domains shown) VH: QVQLVESGGGVVQPGRSLRLSCAASGFTFSNFGMHWVRQAPGKGLEWVAVISDDGNNEFYAGSVKGRFSISRDNSKNTLYLQMNSLRPEDTAVYYCVRAFRNSNWATGEYFDYWGQGTLVTVSS VL: not shown | no binding (tested: 200 µg/mL) | no binding (tested: 200 µg/mL) | 
COV91-27 (antibody, V domains shown) VH: QVQLVESGGGVVHPGGSLRLSCAASGFTFSDFAMNWVRQAPGEGLQWVAIISYDGRNKHFAASVRGRFTISRDNSKNTMFLQMSSLRAEDTAIYYCATLGGWFEEASPTYWGRGTLVTVSS VL: EVVLTQSPAIVSLSPGERATLSCRASQSVGSRLAWHQQKPGLAPRVLIYDASNRATGIPARFSGSGSGTDFTLTISSIEPEDSAVYYCQQRGDWPLITFGQGTRLEIK |  | no binding (tested: 200 µg/mL) | 
COV78-36 (antibody, V domains shown) VH: EVQLVQSGAEVKKPGESLRISCKGSGYSFSNSWITWVRQMPGKGLEWVGRIDTRDSRTAYSPSFEGHVFFSADRSSDTVYVQWRSLRASDTAVYYCTTGAGVVIAASYFWGQGTLVTVSS VL: QSALTQPPSASGSPGQPVTISCTGTSSDVGGYEYVSWYQQLPGKVPTLIIHEVSKRPSGVPDRFSGSKSGNTASLTVSGLQAEDEADYYCSSYSADSSIIFGGGTKLTVL | no binding (tested: 200 µg/mL) | no binding (tested: 200 µg/mL) | 
COV77-04 (antibody, V domains shown) VH: QVRLQESGPGLVKPSETLSVTCTVSGVSISNYYWSWIRQPPGKGLEWIGYISDTGSTNYSPSLQSRVTISVDMSKNQVSLEVTSVTATDTAVYYCARTTTSVPFDYWGKGVLVTVSS VL: SYELTQPPSVSVSPGQVARITCSGEALPKKYAYWYQHKPGQFPLLVIHKDSERPSGIPERFSGSSSGTVVTLTISGVQAEDEADYFCLSTDGSTTWVFGGGTKLTVL | no binding (tested: 200 µg/mL) | no binding (tested: 200 µg/mL) | 
COV44-79 (antibody, V domains shown) VH: QVQLVESGGGVVQPGRSLRLSCAASGLTFSGYAMHWVRQAPGKGLEWVAVISRDARNKYYADSVKGRFTISRDNSKKTVYLEMNSLRVEDTAVYYCAILIIPGITEPGSPDALDIWGQGTMVSVSS VL: DIQMTQSPSSMSASVGDRVTITCRASQDISKWLAWYQQRPGKAPKLLIYAASSLQSGVPSRFSGSGSGTDFTLTISSLQPEDFATYYCQQASSFPWSITFGQGTRLEIR |  | no binding (tested: 200 µg/mL) | 
COV30-35 (antibody, V domains shown) VH: QVQLQESGPGQVKPSGTLSLTCAVSGGSINSSNWWSWVRQPPGKGLEWIGEIFHSGNTNYKPSLESRVTISFDKSKKELSLRLTSVTAADTAVYYCATLFCSGGTCYLGDWGQGTLVTVSS VL: EIVLTQSPGTLSVSPGQRATLSCRASESVSSRYVAWYQQKPGQAPRLIIYGASSRATGIPDRFSGSGSGTEFILSISRLEPEDSAVYYCQQYGSSPTFGGGTKVEIK | no binding (tested: 200 µg/mL) | no binding (tested: 200 µg/mL) | no binding (tested: 200 µg/mL)
COV89-22 (antibody, V domains shown) VH: QEQLVQSGAEVKKPGASVKVSCKSSGFTFSYFYLHWVRQAPGQGLEWMGIINPRGDGTRYAQKFQGRVTMTRDASTGTLYMELRSLRSEDTAVYYCARGADHGAFDIWGQGTMVTVSS VL: EIVLTQSPGTLSLSPGERATLSCRASQSVRRNYFAWYQQKRGQAPRLLIYDASTRATGIPDRFSGSGSGTDFTLTISRLEPEDFAVYYCQQYDSSPPMYIFGQGTKLEIK |  | no binding (tested: 200 µg/mL) | no binding (tested: 200 µg/mL)
COV44-62 (antibody, V domains shown) VH: QMQLMQSGAEVKKPGASVTVSCKASGDTFSDYRIHWVRQAPGQGLEWMGRMNPKSGDTNFAQKFQGRVTMTRDMSINTAYMTLSGLTFDDTALYYCASLLIVGGFDPLDDFEVWGQGTMVTISS VL: QSALTQPPSASGSPGQSVTISCSGTSSDVGGYNFVSWYQHHPGKAPKILIYEVTKRPSGVPDRFSGSKSGNTASLTVSGLQAEDEADYYCSSYGGTNNLLFGGGTKLTVL |  | no binding (tested: 200 µg/mL) | 
COV77-42 (antibody, V domains shown) VH: QVYLQESGPGLVKPSQTLSLTCAVSGGSIRSDGYYWTWIRQHPGKGLEWIGNTYYNGNTYYNPSLRSRVTTSLDTSKNQFSLKVVSMTGADTAVYYCARGRLGFCAGGACFLDTLDYWGQGTLVTVSS VL: EIVMTQSPVTLSVSPGERVTLSCRADQSVNNNLAWYQQKPGQAPRLLIHGASTRATGIPARFSGSGSGTEFTLTISSLQSEDFAIYYCQQYYNWLLTFGGGTKLEIK | no binding (tested: 200 µg/mL) | no binding (tested: 200 µg/mL) | no binding (tested: 200 µg/mL)
COV77-05 (antibody, V domains shown) VH: QMQLHESGPGLVKPSQTLSLTCAVSGGSISSDGYYWNWVRQHPGKGLELIAYIYYNGRPYYNPSLRSRVNISLDTSMNQFSLRMKSLTAADTAVYYCARGRLGYCAGGSCFLESFDYWGQGALVTVSS VL: EIVMTQSPATLSVSPGETATLSCRASESISSNLAWYQQKPGQAPRLLIYGASTRATGIPARFSGSGSGTEFALTISSLQAEDFAVYSCQQYHNWLLTFGGGTKVEIK | no binding (tested: 200 µg/mL) | no binding (tested: 200 µg/mL) | no binding (tested: 200 µg/mL)
COV77-39 (antibody, V domains shown) VH: RVQLQESGPGLVKPSETLSLTCTVSGGSITDDYWNWIRQPPGKGLEWIGYVHDSGTTNYNPSLKSRVTLSLHTSGNKFSLRLTSVTAADTAMYYCARTTTTFPFDSWGQGTLVIVSS VL: SYELTQPPSVSVSLGQMARITCSGEALPKKYVYWYQQKPGQFPVLVIYKDRERPSGIPERFSGSSSGTIVTLTISGVQAEDEADYYCLSVDSTANWVFGGGTKLTVL | no binding (tested: 200 µg/mL) | no binding (tested: 200 µg/mL) | 
COV30-80 (antibody, V domains shown) VH: QVQLVESGGGVVQPGRSLRLSCAASGFTFSSYAMHWVRQAPGKGLEWVAVISYDGNNAFYADSVKGRFTISRDNSKNTVYVQMDSLRAEETAVYYCARAGYNSNWDLGDALDIWGQGTMVTVSS VL: not shown | no binding (tested: 200 µg/mL) | no binding (tested: 200 µg/mL) | 
